{"source": "paper PMC9177983", "about": "“Mechanism of transcription modulation by the transcription-repair coupling factor” (Nucleic Acids Research, 2021)", "molecular_target": "reconstituted elongation complex (EC): His-tagged E. coli RNAP core complex on template DNA, non-template DNA … (E. coli, Core RNAP assembled with biotinylated 49-mer template/non-template DNA and RNA primer (nucleic acid sequences in the supplement). The text gives only 'RNAP core complex' from pIA900; alpha2-beta-beta')", "sequence (A1AGI6 whole entry, chain 1 of 4)": "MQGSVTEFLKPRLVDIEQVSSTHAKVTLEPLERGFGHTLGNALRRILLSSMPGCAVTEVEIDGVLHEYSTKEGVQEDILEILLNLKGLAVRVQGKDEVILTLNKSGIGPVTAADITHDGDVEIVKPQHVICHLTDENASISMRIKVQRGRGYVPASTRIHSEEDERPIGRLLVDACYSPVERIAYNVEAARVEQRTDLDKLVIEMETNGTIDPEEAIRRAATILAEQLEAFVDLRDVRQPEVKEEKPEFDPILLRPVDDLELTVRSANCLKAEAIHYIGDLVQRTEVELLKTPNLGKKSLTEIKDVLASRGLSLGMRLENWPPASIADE", "sequence (A1AIF9 whole entry, chain 2 of 4, further chain)": "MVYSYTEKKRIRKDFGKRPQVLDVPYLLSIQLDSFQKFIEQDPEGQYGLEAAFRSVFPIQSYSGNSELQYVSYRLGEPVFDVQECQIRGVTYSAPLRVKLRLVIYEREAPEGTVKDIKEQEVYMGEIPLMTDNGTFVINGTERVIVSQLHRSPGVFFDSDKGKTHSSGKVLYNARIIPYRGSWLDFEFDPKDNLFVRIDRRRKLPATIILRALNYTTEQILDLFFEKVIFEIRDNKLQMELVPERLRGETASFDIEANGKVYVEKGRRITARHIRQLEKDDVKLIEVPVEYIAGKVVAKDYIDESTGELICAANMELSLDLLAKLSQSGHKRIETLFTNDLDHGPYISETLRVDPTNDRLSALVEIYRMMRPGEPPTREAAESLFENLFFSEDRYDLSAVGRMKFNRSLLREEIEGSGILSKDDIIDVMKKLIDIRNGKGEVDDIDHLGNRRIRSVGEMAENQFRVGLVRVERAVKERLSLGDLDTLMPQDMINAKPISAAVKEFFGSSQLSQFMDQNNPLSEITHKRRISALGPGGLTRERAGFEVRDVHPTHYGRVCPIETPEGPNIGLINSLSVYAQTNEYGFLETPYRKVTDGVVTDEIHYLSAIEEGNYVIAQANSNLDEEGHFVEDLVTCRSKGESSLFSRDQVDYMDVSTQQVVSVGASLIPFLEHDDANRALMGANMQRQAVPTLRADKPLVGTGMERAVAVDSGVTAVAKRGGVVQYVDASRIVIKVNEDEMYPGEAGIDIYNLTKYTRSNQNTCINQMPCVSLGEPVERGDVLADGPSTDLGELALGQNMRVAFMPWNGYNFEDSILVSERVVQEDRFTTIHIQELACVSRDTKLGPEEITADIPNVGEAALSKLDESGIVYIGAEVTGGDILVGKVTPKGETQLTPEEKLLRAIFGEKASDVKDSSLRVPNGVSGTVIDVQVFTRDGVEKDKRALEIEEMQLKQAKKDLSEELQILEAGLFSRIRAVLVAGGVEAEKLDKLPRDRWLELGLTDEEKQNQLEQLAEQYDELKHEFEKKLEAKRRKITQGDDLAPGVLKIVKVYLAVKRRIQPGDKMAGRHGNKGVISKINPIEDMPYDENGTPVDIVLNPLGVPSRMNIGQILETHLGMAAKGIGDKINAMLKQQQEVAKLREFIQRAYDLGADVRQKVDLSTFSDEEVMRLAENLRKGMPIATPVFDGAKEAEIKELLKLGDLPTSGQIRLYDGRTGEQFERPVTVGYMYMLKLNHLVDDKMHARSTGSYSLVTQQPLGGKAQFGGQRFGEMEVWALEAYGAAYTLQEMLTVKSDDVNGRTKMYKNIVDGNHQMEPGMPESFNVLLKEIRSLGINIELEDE", "sequence (A7ZUK2 whole entry, chain 3 of 4, further chain)": "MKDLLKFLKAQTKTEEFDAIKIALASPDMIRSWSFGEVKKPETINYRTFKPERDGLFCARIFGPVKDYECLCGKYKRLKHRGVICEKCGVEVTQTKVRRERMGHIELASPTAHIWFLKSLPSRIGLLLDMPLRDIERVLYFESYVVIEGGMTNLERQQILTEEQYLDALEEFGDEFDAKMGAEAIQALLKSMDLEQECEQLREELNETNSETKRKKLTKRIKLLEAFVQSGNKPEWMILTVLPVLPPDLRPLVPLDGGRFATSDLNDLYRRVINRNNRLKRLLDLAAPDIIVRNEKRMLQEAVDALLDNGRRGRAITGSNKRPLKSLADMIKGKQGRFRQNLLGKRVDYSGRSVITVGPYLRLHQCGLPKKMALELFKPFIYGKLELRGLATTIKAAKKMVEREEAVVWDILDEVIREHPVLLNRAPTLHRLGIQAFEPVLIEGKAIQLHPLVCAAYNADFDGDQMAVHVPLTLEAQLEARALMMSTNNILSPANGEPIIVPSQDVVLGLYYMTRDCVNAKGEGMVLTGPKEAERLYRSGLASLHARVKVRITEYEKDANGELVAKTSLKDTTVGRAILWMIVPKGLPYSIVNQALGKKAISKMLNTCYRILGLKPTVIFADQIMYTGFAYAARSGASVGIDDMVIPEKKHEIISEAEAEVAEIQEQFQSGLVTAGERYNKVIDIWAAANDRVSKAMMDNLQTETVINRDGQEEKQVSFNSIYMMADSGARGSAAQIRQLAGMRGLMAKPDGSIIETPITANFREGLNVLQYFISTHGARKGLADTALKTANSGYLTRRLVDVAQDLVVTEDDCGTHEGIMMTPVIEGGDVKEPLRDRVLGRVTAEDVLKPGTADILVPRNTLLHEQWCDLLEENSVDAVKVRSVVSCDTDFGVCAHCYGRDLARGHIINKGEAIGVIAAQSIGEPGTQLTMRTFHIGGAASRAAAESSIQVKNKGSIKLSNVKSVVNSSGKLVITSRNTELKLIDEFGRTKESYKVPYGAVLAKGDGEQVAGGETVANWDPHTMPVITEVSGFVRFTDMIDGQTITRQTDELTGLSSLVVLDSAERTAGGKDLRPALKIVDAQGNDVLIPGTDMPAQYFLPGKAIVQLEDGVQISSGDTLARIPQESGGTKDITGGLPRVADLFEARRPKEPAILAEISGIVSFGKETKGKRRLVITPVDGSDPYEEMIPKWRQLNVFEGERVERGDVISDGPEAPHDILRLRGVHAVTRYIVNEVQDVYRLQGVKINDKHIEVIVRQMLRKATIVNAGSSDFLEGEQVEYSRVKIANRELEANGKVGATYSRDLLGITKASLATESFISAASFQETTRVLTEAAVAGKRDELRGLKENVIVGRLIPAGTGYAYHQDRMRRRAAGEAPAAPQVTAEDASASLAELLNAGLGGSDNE", "sequence (A1AHI0 2-91, chain 4 of 4, further chain)": "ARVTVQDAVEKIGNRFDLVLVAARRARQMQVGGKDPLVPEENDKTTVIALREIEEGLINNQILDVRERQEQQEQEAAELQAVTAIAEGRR", "experiment": "SPR; BIAcore T200, SA chip; reconstituted EC on biotinylated 49-mer immobilised (550 RU after 1 M KCl wash); Mfd 0-640 nM flowed in SPR buffer (30 mM Tris/HCl pH 7.6, 40 mM KCl, 5 mM MgCl2, 0.005% P20, 0.25 mM EDTA, 0.5 mM DTT) with 0.5 mM ATPɣS; 20°C; 1:1 steady state affinity fit", "conditions": "both partners purified", "data": [{"binder": "Mfd, the bacterial transcription-repair coupling factor (wild type) (natural protein, E. coli, UniProt P30958 1-1148, looked up, Mfd (transcription-repair coupling factor), E. coli; mfd gene without ypet inserted in vector pSH1017, plasmid pHG4137; called full-length Mfd in the cryo-EM section; No tag is stated; purified by conventional chromatography; In the SPR it was flowed with 0.5 mM ATPɣS; also called TRCF; wildtype Mfd; source: E. coli BL21(λDE3)recA, purified (ammonium sulfate, DEAE, heparin Sepharose)) MPEQYRYTLPVKAGEQRLLGELTGAACATLVAEIAERHAGPVVLIAPDMQNALRLHDEISQFTDQMVMNLADWETLPYDSFSPHQDIISSRLSTLYQLPTMQRGVLIVPVNTLMQRVCPHSFLHGHALVMKKGQRLSRDALRTQLDSAGYRHVDQVMEHGEYATRGALLDLFPMGSELPYRLDFFDDEIDSLRVFDVDSQRTLEEVEAINLLPAHEFPTDKAAIELFRSQWRDTFEVKRDPEHIYQQVSKGTLPAGIEYWQPLFFSEPLPPLFSYFPANTLLVNTGDLETSAERFQADTLARFENRGVDPMRPLLPPQSLWLRVDELFSELKNWPRVQLKTEHLPTKAANANLGFQKLPDLAVQAQQKAPLDALRKFLETFDGPVVFSVESEGRREALGELLARIKIAPQRIMRLDEASDRGRYLMIGAAEHGFVDTVRNLALICESDLLGERVARRRQDSRRTINPDTLIRNLAELHIGQPVVHLEHGVGRYAGMTTLEAGGITGEYLMLTYANDAKLYVPVSSLHLISRYAGGAEENAPLHKLGGDAWSRARQKAAEKVRDVAAELLDIYAQRAAKEGFAFKHDREQYQLFCDSFPFETTPDQAQAINAVLSDMCQPLAMDRLVCGDVGFGKTEVAMRAAFLAVDNHKQVAVLVPTTLLAQQHYDNFRDRFANWPVRIEMISRFRSAKEQTQILAEVAEGKIDILIGTHKLLQSDVKFKDLGLLIVDEEHRFGVRHKERIKAMRANVDILTLTATPIPRTLNMAMSGMRDLSIIATPPARRLAVKTFVREYDSMVVREAILREILRGGQVYYLYNDVENIQKAAERLAELVPEARIAIGHGQMRERELERVMNDFHHQRFNVLVCTTIIETGIDIPTANTIIIERADHFGLAQLHQLRGRVGRSHHQAYAWLLTPHPKAMTTDAQKRLEAIASLEDLGAGFALATHDLEIRGAGELLGEEQSGSMETIGFSLYMELLENAVDALKAGREPSLEDLTSQQTEVELRMPSLLPDDFIPDVNTRLSFYKRIASAKTENELEEIKVELIDRFGLLPDPARTLLDIARLRQQAQKLGIRKLEGNEKGGVIEFAEKNHVNPAWLIGLLQKQPQHYRLDGPTRLKFIQDLSERKTRIEWVRQFMRELEENAIA", "values": [{"measurement": "Kd", "result": "127 ± 6", "unit": "nM"}]}]}
